experiment: melting temperature; melt of duplexes; settings: sodium 0.0675 M; strand 1 µM

Point of comparison: “CGACGTGCTTAATGTGCTG+CAGCACATGTAGCACGTCG (((((((((..((((((((+))))))))..)))))))))”, Tm 53.4 °C. Against it:
- CGACGTGCACTATGTGCTG+CAGCACATACTGCACGTCG (((((((((.(((((((((+))))))))).))))))))) — lower, 48.8 °C
- CGACGTGCAATATGTGCTG+CAGCACATGGCGCACGTCG ((((((((...((((((((+))))))))...)))))))) — lower, 50.5 °C
- CGACGTGCACTATGTGCTG+CAGCACATGTGGCACGTCG ((((((((...((((((((+))))))))...)))))))) — lower, 48 °C
- CGACGTGCCTCATGTGCTG+CAGCACATGACGCACGTCG ((((((((.((((((((((+)))))))))).)))))))) — lower, 52.7 °C
- CGACGTGCATCATGTGCTG+CAGCACATAGAGCACGTCG ((((((((...((((((((+))))))))...)))))))) — lower, 50.1 °C
- CGACGTGCGTCATGTGCTG+CAGCACATGTGGCACGTCG ((((((((..(((((((((+)))))))))..)))))))) — higher, 54.8 °C
- CGACGTGCTCCATGTGCTG+CAGCACATAGAGCACGTCG ((((((((((.((((((((+)))))))).)))))))))) — higher, 56.2 °C
- CGACGTGCTAAATGTGCTG+CAGCACATGGGGCACGTCG ((((((((...((((((((+))))))))...)))))))) — lower, 52.5 °C
- CGACGTGCGTCATGTGCTG+CAGCACATGCCGCACGTCG (((((((((.(((((((((+))))))))).))))))))) — higher, 59.9 °C
- CGACGTGCAGCATGTGCTG+CAGCACATCGTGCACGTCG (((((((((..((((((((+))))))))..))))))))) — lower, 44.1 °C
- CGACGTGCATTATGTGCTG+CAGCACATATAGCACGTCG ((((((((..(((((((((+)))))))))..)))))))) — lower, 52.3 °C
- CGACGTGCGTCATGTGCTG+CAGCACATTCCGCACGTCG (((((((((..((((((((+))))))))..))))))))) — lower, 52.8 °C
- CGACGTGCCGAATGTGCTG+CAGCACATAGAGCACGTCG ((((((((...((((((((+))))))))...)))))))) — lower, 49.9 °C
- CGACGTGCAGGATGTGCTG+CAGCACATACCGCACGTCG ((((((((.(.((((((((+)))))))).).)))))))) — higher, 53.7 °C
- CGACGTGCTCGATGTGCTG+CAGCACATAGTGCACGTCG ((((((((.(.((((((((+)))))))).).)))))))) — lower, 49.8 °C
- CGACGTGCTTGATGTGCTG+CAGCACATAACGCACGTCG ((((((((.(.((((((((+)))))))).).)))))))) — lower, 50.8 °C
- CGACGTGCGGTATGTGCTG+CAGCACATGCGGCACGTCG ((((((((.(.((((((((+)))))))).).)))))))) — higher, 55.1 °C
- CGACGTGCTTGATGTGCTG+CAGCACATTGCGCACGTCG ((((((((...((((((((+))))))))...)))))))) — lower, 48.1 °C
- CGACGTGCAGCATGTGCTG+CAGCACATTCTGCACGTCG ((((((((((.((((((((+)))))))).)))))))))) — higher, 55 °C
- CGACGTGCCGCATGTGCTG+CAGCACATGTAGCACGTCG ((((((((..(((((((((+)))))))))..)))))))) — higher, 54.4 °C
- CGACGTGCGCCATGTGCTG+CAGCACATAATGCACGTCG ((((((((...((((((((+))))))))...)))))))) — lower, 48.6 °C
- CGACGTGCTTAATGTGCTG+CAGCACATACGGCACGTCG ((((((((...((((((((+))))))))...)))))))) — lower, 48.3 °C
- CGACGTGCGACATGTGCTG+CAGCACATAATGCACGTCG ((((((((...((((((((+))))))))...)))))))) — lower, 50.8 °C
- CGACGTGCTCCATGTGCTG+CAGCACATACAGCACGTCG (((((((((..((((((((+))))))))..))))))))) — lower, 49.6 °C
- CGACGTGCAATATGTGCTG+CAGCACATGACGCACGTCG ((((((((...((((((((+))))))))...)))))))) — lower, 48.2 °C
- CGACGTGCGTTATGTGCTG+CAGCACATCACGCACGTCG ((((((((((.((((((((+)))))))).)))))))))) — higher, 56.8 °C
- CGACGTGCGCAATGTGCTG+CAGCACATACAGCACGTCG ((((((((...((((((((+))))))))...)))))))) — lower, 51.4 °C
- CGACGTGCGCAATGTGCTG+CAGCACATGTCGCACGTCG (((((((((..((((((((+))))))))..))))))))) — higher, 56.1 °C
- CGACGTGCGCTATGTGCTG+CAGCACATGGGGCACGTCG ((((((((.(.((((((((+)))))))).).)))))))) — higher, 56.7 °C
- CGACGTGCGCTATGTGCTG+CAGCACATTGCGCACGTCG ((((((((((.((((((((+)))))))).)))))))))) — higher, 61 °C
- CGACGTGCACAATGTGCTG+CAGCACATGAAGCACGTCG ((((((((...((((((((+))))))))...)))))))) — lower, 49.9 °C
- CGACGTGCGAAATGTGCTG+CAGCACATGAGGCACGTCG ((((((((...((((((((+))))))))...)))))))) — higher, 54.5 °C
- CGACGTGCCCGATGTGCTG+CAGCACATACGGCACGTCG (((((((((..((((((((+))))))))..))))))))) — higher, 53.5 °C
- CGACGTGCACCATGTGCTG+CAGCACATTTTGCACGTCG (((((((((..((((((((+))))))))..))))))))) — lower, 46.7 °C
- CGACGTGCCCCATGTGCTG+CAGCACATGCAGCACGTCG ((((((((..(((((((((+)))))))))..)))))))) — lower, 51.9 °C
- CGACGTGCGGCATGTGCTG+CAGCACATCTGGCACGTCG ((((((((...((((((((+))))))))...)))))))) — lower, 51.1 °C
- CGACGTGCGGAATGTGCTG+CAGCACATATGGCACGTCG ((((((((...((((((((+))))))))...)))))))) — lower, 50.8 °C
- CGACGTGCAGCATGTGCTG+CAGCACATCTGGCACGTCG ((((((((...((((((((+))))))))...)))))))) — lower, 49.5 °C
- CGACGTGCATGATGTGCTG+CAGCACATAACGCACGTCG ((((((((.(.((((((((+)))))))).).)))))))) — lower, 49.3 °C
- CGACGTGCGTTATGTGCTG+CAGCACATCCCGCACGTCG (((((((((..((((((((+))))))))..))))))))) — lower, 51.7 °C
- CGACGTGCCCGATGTGCTG+CAGCACATCCAGCACGTCG ((((((((..(((((((((+)))))))))..)))))))) — lower, 52.7 °C
- CGACGTGCAGGATGTGCTG+CAGCACATAGGGCACGTCG ((((((((...((((((((+))))))))...)))))))) — lower, 50.3 °C
- CGACGTGCCTCATGTGCTG+CAGCACATCACGCACGTCG ((((((((.(.((((((((+)))))))).).)))))))) — lower, 46.1 °C
- CGACGTGCCACATGTGCTG+CAGCACATAGAGCACGTCG ((((((((...((((((((+))))))))...)))))))) — lower, 49.4 °C
- CGACGTGCTGTATGTGCTG+CAGCACATGTCGCACGTCG ((((((((...((((((((+))))))))...)))))))) — lower, 49.3 °C
- CGACGTGCCTTATGTGCTG+CAGCACATTGGGCACGTCG (((((((((..((((((((+))))))))..))))))))) — higher, 55 °C
- CGACGTGCGATATGTGCTG+CAGCACATCAAGCACGTCG ((((((((...((((((((+))))))))...)))))))) — lower, 52.1 °C
- CGACGTGCTCAATGTGCTG+CAGCACATGGAGCACGTCG ((((((((((.((((((((+)))))))).)))))))))) — higher, 59.5 °C
- CGACGTGCTCAATGTGCTG+CAGCACATGTTGCACGTCG ((((((((...((((((((+))))))))...)))))))) — lower, 50.1 °C
- CGACGTGCCCGATGTGCTG+CAGCACATTACGCACGTCG ((((((((...((((((((+))))))))...)))))))) — lower, 48 °C
- CGACGTGCTAGATGTGCTG+CAGCACATATCGCACGTCG ((((((((.(.((((((((+)))))))).).)))))))) — lower, 51 °C
- CGACGTGCGGCATGTGCTG+CAGCACATAGCGCACGTCG (((((((((..((((((((+))))))))..))))))))) — higher, 55.9 °C
- CGACGTGCGAGATGTGCTG+CAGCACATAAGGCACGTCG ((((((((...((((((((+))))))))...)))))))) — lower, 51.1 °C
- CGACGTGCTCGATGTGCTG+CAGCACATGATGCACGTCG ((((((((...((((((((+))))))))...)))))))) — lower, 51.9 °C
- CGACGTGCCGGATGTGCTG+CAGCACATGTTGCACGTCG ((((((((...((((((((+))))))))...)))))))) — lower, 48.1 °C
- CGACGTGCGCCATGTGCTG+CAGCACATTAGGCACGTCG ((((((((...((((((((+))))))))...)))))))) — lower, 48.3 °C
- CGACGTGCTACATGTGCTG+CAGCACATGACGCACGTCG ((((((((..(((((((((+)))))))))..)))))))) — lower, 50.8 °C
- CGACGTGCGCCATGTGCTG+CAGCACATTTCGCACGTCG (((((((((..((((((((+))))))))..))))))))) — lower, 51.6 °C
- CGACGTGCGGTATGTGCTG+CAGCACATCCCGCACGTCG ((((((((((.((((((((+)))))))).)))))))))) — higher, 59.9 °C
- CGACGTGCGCGATGTGCTG+CAGCACATCGGGCACGTCG ((((((((.((((((((((+)))))))))).)))))))) — higher, 63.6 °C
- CGACGTGCGGTATGTGCTG+CAGCACATATGGCACGTCG ((((((((..(((((((((+)))))))))..)))))))) — higher, 54 °C
- CGACGTGCGTGATGTGCTG+CAGCACATGAAGCACGTCG ((((((((.(.((((((((+)))))))).).)))))))) — higher, 54 °C
- CGACGTGCTAGATGTGCTG+CAGCACATGACGCACGTCG ((((((((...((((((((+))))))))...)))))))) — lower, 48.1 °C
- CGACGTGCAATATGTGCTG+CAGCACATGCAGCACGTCG ((((((((...((((((((+))))))))...)))))))) — lower, 52.1 °C
- CGACGTGCAGAATGTGCTG+CAGCACATCATGCACGTCG (((((((((..((((((((+))))))))..))))))))) — lower, 53 °C
- CGACGTGCGCGATGTGCTG+CAGCACATTAAGCACGTCG ((((((((...((((((((+))))))))...)))))))) — higher, 55 °C
- CGACGTGCGCTATGTGCTG+CAGCACATAGTGCACGTCG ((((((((.((((((((((+)))))))))).)))))))) — higher, 58.2 °C
- CGACGTGCCTCATGTGCTG+CAGCACATACTGCACGTCG ((((((((...((((((((+))))))))...)))))))) — lower, 47 °C
- CGACGTGCGTGATGTGCTG+CAGCACATGATGCACGTCG ((((((((.(.((((((((+)))))))).).)))))))) — higher, 54 °C
- CGACGTGCTCAATGTGCTG+CAGCACATATAGCACGTCG (((((((((..((((((((+))))))))..))))))))) — lower, 51.5 °C
- CGACGTGCTAGATGTGCTG+CAGCACATAGGGCACGTCG ((((((((...((((((((+))))))))...)))))))) — lower, 51.5 °C
